Measured values reported in US20240409645A1 (DUALYX, published 2024).

T1: human IL-2 receptor (IL-2Rα/IL-2Rβ/γc) (human, UniProt P01589 22-272; P14784 27-551; P31785 23-369)
T1 sequence 1: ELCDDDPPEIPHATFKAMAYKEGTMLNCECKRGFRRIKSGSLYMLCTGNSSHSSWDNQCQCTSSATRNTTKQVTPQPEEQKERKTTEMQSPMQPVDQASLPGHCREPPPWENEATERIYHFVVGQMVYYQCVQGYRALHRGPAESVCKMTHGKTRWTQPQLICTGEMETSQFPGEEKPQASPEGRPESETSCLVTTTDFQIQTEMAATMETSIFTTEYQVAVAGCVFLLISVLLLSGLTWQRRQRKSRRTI
T1 sequence 2: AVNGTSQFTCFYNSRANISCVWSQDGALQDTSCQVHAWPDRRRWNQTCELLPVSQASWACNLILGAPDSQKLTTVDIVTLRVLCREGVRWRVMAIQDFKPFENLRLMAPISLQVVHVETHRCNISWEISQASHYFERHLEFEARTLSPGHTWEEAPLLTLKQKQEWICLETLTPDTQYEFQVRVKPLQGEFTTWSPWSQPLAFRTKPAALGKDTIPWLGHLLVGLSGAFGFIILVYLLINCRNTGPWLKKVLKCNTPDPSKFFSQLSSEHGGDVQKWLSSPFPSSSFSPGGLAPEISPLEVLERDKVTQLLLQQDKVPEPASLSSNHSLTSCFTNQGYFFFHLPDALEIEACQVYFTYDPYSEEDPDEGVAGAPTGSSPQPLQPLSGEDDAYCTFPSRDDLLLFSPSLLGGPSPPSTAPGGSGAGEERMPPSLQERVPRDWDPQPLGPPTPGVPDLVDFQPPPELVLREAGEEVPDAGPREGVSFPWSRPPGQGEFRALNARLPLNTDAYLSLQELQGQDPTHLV
T1 sequence 3: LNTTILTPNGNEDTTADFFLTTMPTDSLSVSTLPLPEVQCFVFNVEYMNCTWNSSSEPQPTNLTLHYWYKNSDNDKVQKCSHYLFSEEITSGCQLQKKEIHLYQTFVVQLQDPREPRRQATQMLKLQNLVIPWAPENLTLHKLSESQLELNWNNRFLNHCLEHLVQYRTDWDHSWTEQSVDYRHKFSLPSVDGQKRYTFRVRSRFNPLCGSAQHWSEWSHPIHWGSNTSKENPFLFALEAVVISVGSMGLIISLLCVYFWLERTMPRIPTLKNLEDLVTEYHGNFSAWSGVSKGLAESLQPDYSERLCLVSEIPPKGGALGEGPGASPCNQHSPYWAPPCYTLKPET


Molecular target: T1, human IL-2 receptor (IL-2Rα/IL-2Rβ/γc)
Experiment: cell-based or functional assay

EC50 (nM) pSTAT5, NK, human PBMCs | EC50 (nM) pSTAT5, Treg, human PBMCs | Fold Max signal (% pSTAT5+) Treg/NK | Max signal (% pSTAT5+), NK | Max signal (% pSTAT5+), Treg | fold EC50 NK/Treg | Binder
0.0425 nM | 0.529 pM | 16 fold | 3 % pSTAT5+ | 54 % pSTAT5+ | 80 fold | DC00043 (other) chain 1: QVQLVESGGGLVQPGGSLRLSCATSGFTFRNNFMSWVRQAPGKGLEWVSTISYGGESTTYAESVKGRFTISRDNAKNTLYLQMNNLKPEDTAVYYCAKATSYDSIRSGSRGQGTQVTVSSDKTHTCPPCPAPEAAGGPSVFLFPPKPKDTLMISRTPEVTCVVVDVSHEDPEVKFNWYVDGVEVHNAKTKPREEQYNSTYRVVSVLTVLHQDWLNGKEYKCKVSNKALGAPIEKTISKAKGQPREPQVYTLPPSRDELTKNQVSLTCLVKGFYPSDIAVEWESNGQPENNYKTTPPVLDSDGSFLLYSKLTVDKSRWQQGNVFSCSVMHEALHNHYTQKSLSLSPGK chain 2: QVQLVESGGGLVQPGGSLRLSCATSGFTFRNNFMSWVRQAPGKGLEWVSTISYGGESTTYAESVKGRFTISRDNAKNTLYLQMNNLKPEDTAVYYCAKATSYDSIRSGSRGQGTQVTVSSGGGGSGGGGSGGGGSEVQLVESGGGLVQTGGSLRLSCAASGGTFSRDAMAWFRQVPGKEREFVALISWSGATTNYADSVKGRFAISRDNGKNTVYLQMNRLKPADTAIYYCAADRRPMGSRSYFEPTEYDDWGQGTQVTVSSGGGGSGGGGSGGGGSQVQLVESGGGLVQAGGSLTLSCAAPGRTFGTDVVGWFRQAPGKEREFVASISRSGDGIYYDDSVKGRFTISRNNAWNTVNLQMNSLKVEDTAVYYCAAGDGWSTYDYWGQGTQVTVSSGGGGSGGGGSGGGGSDKTHTCPPCPAPEAAGGPSVFLFPPKPKDTLMISRTPEVTCVVVDVSHEDPEVKFNWYVDGVEVHNAKTKPREEQYNSTYRVVSVLTVLHQDWLNGKEYKCKVSNKALGAPIEKTISKAKGQPREPQVYTLPPSRDELTKNQVSLTCLVKGFYPSDIAVEWESNGQPENNYKTTPPVLDSDGSFFLYSRLTVDKSRWQQGNVFSCSVMHEALHNHYTQKSLSLSPGK
0.442 nM | < 0.1 pM | 5 fold | 20 % pSTAT5+ | 96 % pSTAT5+ | > 4420 fold | DC00044 (other) chain 1: QVQLVESGGGLVQPGGSLRLSCATSGFTFRNNFMSWVRQAPGKGLEWVSTISYGGESTTYAESVKGRFTISRDNAKNTLYLQMNNLKPEDTAVYYCAKATSYDSIRSGSRGQGTQVTVSSDKTHTCPPCPAPEAAGGPSVFLFPPKPKDTLMISRTPEVTCVVVDVSHEDPEVKFNWYVDGVEVHNAKTKPREEQYNSTYRVVSVLTVLHQDWLNGKEYKCKVSNKALGAPIEKTISKAKGQPREPQVYTLPPSRDELTKNQVSLTCLVKGFYPSDIAVEWESNGQPENNYKTTPPVLDSDGSFLLYSKLTVDKSRWQQGNVFSCSVMHEALHNHYTQKSLSLSPGK chain 2: QVQLVESGGGLVQAGGSLTLSCAAPGRTFGTDVVGWFRQAPGKEREFVASISRSGDGIYYDDSVKGRFTISRNNAWNTVNLQMNSLKVEDTAVYYCAAGDGWSTYDYWGQGTQVTVSSGGGGSGGGGSGGGGSEVQLVESGGGLVQTGGSLRLSCAASGGTFSRDAMAWFRQVPGKEREFVALISWSGATTNYADSVKGRFAISRDNGKNTVYLQMNRLKPADTAIYYCAADRRPMGSRSYFEPTEYDDWGQGTQVTVSSGGGGSGGGGSGGGGSQVQLVESGGGLVQPGGSLRLSCATSGFTFRNNFMSWVRQAPGKGLEWVSTISYGGESTTYAESVKGRFTISRDNAKNTLYLQMNNLKPEDTAVYYCAKATSYDSIRSGSRGQGTQVTVSSDKTHTCPPCPAPEAAGGPSVFLFPPKPKDTLMISRTPEVTCVVVDVSHEDPEVKFNWYVDGVEVHNAKTKPREEQYNSTYRVVSVLTVLHQDWLNGKEYKCKVSNKALGAPIEKTISKAKGQPREPQVYTLPPSRDELTKNQVSLTCLVKGFYPSDIAVEWESNGQPENNYKTTPPVLDSDGSFFLYSRLTVDKSRWQQGNVFSCSVMHEALHNHYTQKSLSLSPGK
0.0573 nM | 0.151 pM | 12 fold | 7 % pSTAT5+ | 88 % pSTAT5+ | 379 fold | DC00045 (other) chain 1: QVQLVESGGGLVQPGGSLRLSCATSGFTFRNNFMSWVRQAPGKGLEWVSTISYGGESTTYAESVKGRFTISRDNAKNTLYLQMNNLKPEDTAVYYCAKATSYDSIRSGSRGQGTQVTVSSDKTHTCPPCPAPEAAGGPSVFLFPPKPKDTLMISRTPEVTCVVVDVSHEDPEVKFNWYVDGVEVHNAKTKPREEQYNSTYRVVSVLTVLHQDWLNGKEYKCKVSNKALGAPIEKTISKAKGQPREPQVYTLPPSRDELTKNQVSLTCLVKGFYPSDIAVEWESNGQPENNYKTTPPVLDSDGSFLLYSKLTVDKSRWQQGNVFSCSVMHEALHNHYTQKSLSLSPGK chain 2: QVQLVESGGGLVQAGGSLTLSCAAPGRTFGTDVVGWFRQAPGKEREFVASISRSGDGIYYDDSVKGRFTISRNNAWNTVNLQMNSLKVEDTAVYYCAAGDGWSTYDYWGQGTQVTVSSGGGGSGGGGSGGGGSQVQLVESGGGLVQPGGSLRLSCATSGFTFRNNFMSWVRQAPGKGLEWVSTISYGGESTTYAESVKGRFTISRDNAKNTLYLQMNNLKPEDTAVYYCAKATSYDSIRSGSRGQGTQVTVSSGGGGSGGGGSGGGGSEVQLVESGGGLVQTGGSLRLSCAASGGTFSRDAMAWFRQVPGKEREFVALISWSGATTNYADSVKGRFAISRDNGKNTVYLQMNRLKPADTAIYYCAADRRPMGSRSYFEPTEYDDWGQGTQVTVSSGGGGSGGGGSGGGGSDKTHTCPPCPAPEAAGGPSVFLFPPKPKDTLMISRTPEVTCVVVDVSHEDPEVKFNWYVDGVEVHNAKTKPREEQYNSTYRVVSVLTVLHQDWLNGKEYKCKVSNKALGAPIEKTISKAKGQPREPQVYTLPPSRDELTKNQVSLTCLVKGFYPSDIAVEWESNGQPENNYKTTPPVLDSDGSFFLYSRLTVDKSRWQQGNVFSCSVMHEALHNHYTQKSLSLSPGK
– | – | 4 fold | 6 % pSTAT5+ | 25 % pSTAT5+ | – | DC00046 (other) chain 1: QVQLVESGGGLVQPGGSLRLSCATSGFTFRNNFMSWVRQAPGKGLEWVSTISYGGESTTYAESVKGRFTISRDNAKNTLYLQMNNLKPEDTAVYYCAKATSYDSIRSGSRGQGTQVTVSSGGGGSGGGGSGGGGSQVQLVESGGGLVQPGGSLRLSCATSGFTFRNNFMSWVRQAPGKGLEWVSTISYGGESTTYAESVKGRFTISRDNAKNTLYLQMNNLKPEDTAVYYCAKATSYDSIRSGSRGQGTQVTVSSDKTHTCPPCPAPEAAGGPSVFLFPPKPKDTLMISRTPEVTCVVVDVSHEDPEVKFNWYVDGVEVHNAKTKPREEQYNSTYRVVSVLTVLHQDWLNGKEYKCKVSNKALGAPIEKTISKAKGQPREPQVYTLPPSRDELTKNQVSLTCLVKGFYPSDIAVEWESNGQPENNYKTTPPVLDSDGSFLLYSKLTVDKSRWQQGNVFSCSVMHEALHNHYTQKSLSLSPGK chain 2: EVQLVESGGGLVQTGGSLRLSCAASGGTFSRDAMAWFRQVPGKEREFVALISWSGATTNYADSVKGRFAISRDNGKNTVYLQMNRLKPADTAIYYCAADRRPMGSRSYFEPTEYDDWGQGTQVTVSSGGGGSGGGGSGGGGSQVQLVESGGGLVQPGGSLRLSCATSGFTFRNNFMSWVRQAPGKGLEWVSTISYGGESTTYAESVKGRFTISRDNAKNTLYLQMNNLKPEDTAVYYCAKATSYDSIRSGSRGQGTQVTVSSGGGGSGGGGSGGGGSQVQLVESGGGLVQAGGSLTLSCAAPGRTFGTDVVGWFRQAPGKEREFVASISRSGDGIYYDDSVKGRFTISRNNAWNTVNLQMNSLKVEDTAVYYCAAGDGWSTYDYWGQGTQVTVSSGGGGSGGGGSGGGGSDKTHTCPPCPAPEAAGGPSVFLFPPKPKDTLMISRTPEVTCVVVDVSHEDPEVKFNWYVDGVEVHNAKTKPREEQYNSTYRVVSVLTVLHQDWLNGKEYKCKVSNKALGAPIEKTISKAKGQPREPQVYTLPPSRDELTKNQVSLTCLVKGFYPSDIAVEWESNGQPENNYKTTPPVLDSDGSFFLYSRLTVDKSRWQQGNVFSCSVMHEALHNHYTQKSLSLSPGK
